Source: patent publication US20170335016A1 (Kyowa Kirin, published 2017)
Changes are numbered by the printed parent chain.

B1: 341VL34 scFv (scFv)
scFv: EVQLVESGGGLVKPGGSLRLSCGGSGFTFNNAWMNWVRQAPGKGLEWVGRIKGKTDGGTADYAAPVKGRFTISRDYSKNTLYLQMNSLTTEDTAVYYCNTDLPYYYGSGRYSGMDVWGQGTTVTVSSGGGGSGGRASGGGGSEIVLTQSPATLSLSPGERATLSCRASQSVSSYLAWYQQKPGQAPRLLIYDASNRATGIPARFSGSGSGTDFTLTISSLEPEDFAVYYCQQRSNTFGPGTKVDIK
notes: phage culture supernatant
B2: 341VL36 scFv (scFv)
scFv: B1 scFv with T89K, A94G, N99T, D101Y, G109E, Y111W
notes: phage culture supernatant
B3: anti-CD28 antibody 341VL34 (antibody, V domains shown)
VH: EVQLVESGGGLVKPGGSLRLSCGGSGFTFNNAWMNWVRQAPGKGLEWVGRIKGKTDGGTADYAAPVKGRFTISRDYSKNTLYLQMNSLTTEDTAVYYCNTDLPYYYGSGRYSGMDVWGQGTTVTVSS
VL: EIVLTQSPATLSLSPGERATLSCRASQSVSSYLAWYQQKPGQAPRLLIYDASNRATGIPARFSGSGSGTDFTLTISSLEPEDFAVYYCQQRSNTFGPGTKVDIK
notes: Made in the N5KG2Ser vector; Tested as culture supernatant; not shown: human immunoglobulin kappa light chain constant region
B4: anti-CD28 antibody 341VL36 (antibody, V domains shown)
VH: B3 VH with T89K, A94G, N99T, D101Y, G109E, Y111W
VL: B3 VL
notes: as for B3

Legend:
[1] = target: T1, human-CD28-Fc fusion protein (human, UniProt P10747 19-152); assay: phage ELISA, human-CD28-Fc coated at 2 µg/mL, anti-E tag HRP detection
T1 construct: also called Fc fusion protein of the human-CD28 extracellular domain with IgG; hECD28-Fc
Experimental: Each single colony obtained from the antibody library to which the panning had been applied was seeded in 200 μL of 2×YTAG culture medium and subjected to a shaking culture at 30° C. for 4 to 5 hours. Then, 200 μL of 1×10¹⁰ pfu/mL M13KO helper phage was added to the culture solution for the infection (the shaking culture at 30° C. for 1 hour). After changing the culture medium to 2×YTAK, the shaking culture was carried out at 30° C. overnight. The binding property to the antigen was examined by the following steps (ELISA) using this culture supernatant as a phage solution.
The human-CD28-Fc fusion protein was diluted with Coating buffer (50 mM carbonate buffer, pH 9) to give a concentration of 2 μg/mL. The obtained solution was put into the Maxisorp Plate (manufactured by Nalge Nunc International) at 50 μL/well and incubated at 4° C. overnight to be immobilized. Then, to the well, 200 μL/well of blocking reagent (SuperBlock (registered trademark) Blocking Buffer, manufactured by Pierce Protein Research) was added, the resulting object was incubated at a room temperature for 30 minutes to complete the blocking. To the well, 50 μL/well of each phage solution was added, and incubated at a room temperature for 1 hour. […] The absorbance at the wavelength of 450 nm was measured with a microplate reader (SPECTRAMAX190, manufactured by Molecular Devices Inc).

[2] = target: T1, human-CD28-Fc fusion protein; assay: ELISA, human-CD28-Fc coated at 1 µg/mL, culture supernatant, anti-human κ HRP detection
Experimental: (§1) The human-CD4O-Fc fusion protein and the human-CD28-Fc fusion protein were adjusted to give a concentration of 1 μg/mL using coating buffer (50 mM carbonate buffer, pH 9). To a well, 50 μL/well of the obtained human-CD4O-Fc fusion prostein or the obtained human-CD28-Fc fusion protein was added into the Maxisorp Plate (manufactured by Nalge Nunc International) respectively, and incubated at 4° C. overnight to be immobilized. Then, 200 μL/well of blocking reagent (SuperBlock (registered trademark) Blocking Buffer, manufactured by Pierce Protein Research) was added to the well, followed by incubation at room temperature for 30 minutes for blocking. Then, 50 μL/well of the culture supernatant comprising each antibody obtained in above Examples was added to the well followed by incubation at room temperature for 1 hour. After washing three times with Washing buffer (0.1% Tween20-TBS), Affinity Isolated Antibody HRP Conjugated Goat F(ab)₂ anti-Human κ (manufactured by EY Laboratories Inc) was diluted with assay diluent (0.1% Tween20-TBS containing Block Ace manufactured by Dainippon Sumitomo Pharma Co. Ltd. by 10%). Then, 50 μL of the obtained solution was added to each well followed by incubation at a room temperature for 1 hour. After washing three times with washing buffer, 50 μL of TMB (manufactured by Dako) coloring substrate solution was added to each well, followed by incubation in a dark room at room temperature. After developping color, 0.5 M vitriol (50 μL/well) was added to stop the reaction. The absorbance at the wavelength of 450 nm was measured with a microplate reader (SPECTRAMAX190, manufactured by Molecular Devices Inc).

[3] = target: T2, human-CD40-Fc fusion protein (human, UniProt P25942 21-193); assay: ELISA, human-CD40-Fc coated at 1 µg/mL, culture supernatant, anti-human κ HRP detection
T2 construct: also called human-CD4O-Fc fusion protein; not shown: Fc part; origin and limits not described
Experimental: as §1, with “After washing three times with washing buffer, 50 μL of TMB (manufactured by Dako) coloring substrate solution was added to each well, followed by incubation in a dark room at room temperature. After developping color, 0.5 M vitriol (50 μL/well) was added to stop the reaction.” left out

T1 sequence (P10747 19-152): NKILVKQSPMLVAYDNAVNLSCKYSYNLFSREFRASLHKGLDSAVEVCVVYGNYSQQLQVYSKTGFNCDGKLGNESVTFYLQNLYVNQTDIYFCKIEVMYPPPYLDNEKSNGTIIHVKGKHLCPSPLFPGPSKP
T2 sequence (P25942 21-193 limits assumed): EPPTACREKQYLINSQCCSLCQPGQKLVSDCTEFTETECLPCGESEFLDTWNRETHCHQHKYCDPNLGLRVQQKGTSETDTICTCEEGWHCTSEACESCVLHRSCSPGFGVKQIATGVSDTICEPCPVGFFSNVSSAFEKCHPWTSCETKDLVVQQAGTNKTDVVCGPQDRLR

Row | Binder | binding result [1] | binding result [2] | binding result [3]
1 | B1 | binds | – | –
2 | B2 | binds | – | –
3 | B3 | – | binds | no binding
4 | B4 | – | binds | no binding
